This is an account of results in paper PMC5437018, “Mouse Rif1 is a regulatory subunit of protein phosphatase 1 (PP1)” (Scientific Reports, 2017).

Common to all, as to settings: both partners purified
Assay [1] has as its target T1, Recombinant purified α-isoform of mammalian PP1 (residues 1–330), tag cleaved (mammalian, UniProt P62136 1-330).
T1 construct: Protein phosphatase 1 catalytic subunit, α-isoform, 'mammalian', residues 1–330; synthetic gene (GenScript); Printed mass 37.5 kDa; Subcloned into pMAL-c2G under the Ptac promoter; also called PP1α; source: E. coli BL21 AI (RIL), purified (TALON, TEV cleavage, heparin Sepharose); not shown: His6, N-terminal, cleaved
As to the kind of experiment: SPR; Biacore 3000; PP1 covalently coupled to a CM5 chip; Rif1 CRI, mutants and peptide injected at 20 µl/min in 10 mM Tris-HCl pH 7.5, 250 mM NaCl, 1 mM DTT, 2 mM MnCl2, 0.005% Tween 20; 1:1 binding model.

For assay [2], the target named is T1, Recombinant purified α-isoform of …. As to the kind of experiment: ITC; CRI (140 µM) titrated into PP1 (18 µM), iTC200, 25 °C; 20 mM Tris-HCl pH 7.5, 200 mM NaCl, 1 mM MnCl2, 5 mM β-mercaptoethanol, 10% glycerol.
Assay [3] shares this target. As to the kind of experiment: SEC; analytical gel filtration on Superdex 75 in 20 mM Tris-HCl pH 7.5, 200 mM NaCl, 2 mM DTT, 1 mM MnCl2; PP1/CRI at molar ratios 1:1, 1:3 and 2:1.

T1 sequence (P62136 whole entry, the tested form may be a part, canonical isoform): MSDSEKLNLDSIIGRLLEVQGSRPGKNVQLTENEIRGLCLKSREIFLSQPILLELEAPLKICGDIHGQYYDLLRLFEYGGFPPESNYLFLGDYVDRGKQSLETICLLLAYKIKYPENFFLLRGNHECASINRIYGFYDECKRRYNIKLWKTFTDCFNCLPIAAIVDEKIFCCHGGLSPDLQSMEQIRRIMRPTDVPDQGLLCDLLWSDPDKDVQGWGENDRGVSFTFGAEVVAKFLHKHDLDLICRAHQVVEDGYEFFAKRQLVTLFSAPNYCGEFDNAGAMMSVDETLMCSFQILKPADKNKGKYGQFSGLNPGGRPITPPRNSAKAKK

B1: Rif1 CRI (residues 2093–2190), purified, wild type (domain or fragment, mouse, UniProt Q6PR54 2093-2190, looked up)
chain: TSPEKLELDSFGSVNESPSGMQQARCVWSPLASPSTSILKRGLKRSQEDEISPVNKIRRVSFADPIYQAGLADDIDRRCSVVRSHSSNSSPIIKSVKT
notes: Rif1, mouse, CRI, residues 2093–2190; For NMR the same fragment was 15N or 15N/13C labelled; Printed mass 10.8 kDa; also called CR1; 15N-labeled CRI; source: recombinant, purified (TALON beads, tag cleaved by TEV protease)
In the case of B1, the Kd in assay [1] is 9.7 ± 1.7 nM. Further, in assay [2], the Kd amounted to 22.8 ± 4.2 nM and the dH was -23.8 ± 0.129 kcal/mol. For the same molecule, the “stoichiometry N” value in assay [3] came out at 1.
